Source: patent US20120251547A1 (Amgen, published 2012)
Residue numbers refer to the chain shown, from its start. Values belong to the binder of their own block, whether it stands above or below them.

Legend:
[1] = target: T1, cynomolgus IL-17RA, on cells (cynomolgus); assay: FACS competition: non-clonal supernatant inhibiting biotin-huIL-17A (competitor) binding to cyno IL-17RA+ CHO cells
T1 construct: whole, on cells; also called CHO-cynoIL-17RA; cyno IL-17RA+ CHO cells

[2] = target: T2, huIL-17RA-FLAG-polyHis (human, UniProt Q96F46 33-320); assay: binning; IL-17RA held by bead mAb Q
T2 construct: also called IL-17RA-FLAG-pHis; wild-type IL-17RA

[3] = target: T2, huIL-17RA-FLAG-polyHis; assay: binning; IL-17RA held by bead mAb F
[4] = target: T2, huIL-17RA-FLAG-polyHis; assay: binning; IL-17RA held by bead mAb G
[5] = target: T2, huIL-17RA-FLAG-polyHis; assay: binning; IL-17RA held by bead mAb N
[6] = target: T2, huIL-17RA-FLAG-polyHis; assay: binning; IL-17RA held by bead mAb P
[7] = target: T2, huIL-17RA-FLAG-polyHis; assay: binning; IL-17RA held by bead mAb D
[8] = target: T2, huIL-17RA-FLAG-polyHis; assay: binning; IL-17RA held by bead mAb R
[9] = target: T2, huIL-17RA-FLAG-polyHis; assay: binning; IL-17RA held by bead mAb A
[10] = target: T2, huIL-17RA-FLAG-polyHis; assay: binning; IL-17RA held by bead mAb M
[11] = target: T2, huIL-17RA-FLAG-polyHis; assay: binning; IL-17RA held by bead mAb H
[12] = target: T2, huIL-17RA-FLAG-polyHis; assay: binning; IL-17RA held by bead mAb K
[13] = target: T2, huIL-17RA-FLAG-polyHis; assay: binning; IL-17RA held by bead mAb E
[14] = target: T2, huIL-17RA-FLAG-polyHis; assay: binning; IL-17RA held by bead mAb C
[15] = target: T2, huIL-17RA-FLAG-polyHis; assay: binning; IL-17RA held by bead mAb O
[16] = target: T2, huIL-17RA-FLAG-polyHis; assay: binning; IL-17RA held by bead mAb L
[17] = target: T2, huIL-17RA-FLAG-polyHis; assay: binning; IL-17RA held by bead mAb I
[18] = target: T2, huIL-17RA-FLAG-polyHis; assay: binning; IL-17RA held by bead mAb J
[19] = target: T3, human IL-17RA, full-length, on cells (human, UniProt Q96F46 33-866); assay: cell-based or functional assay
[20] = target: human IL-17RA (form used in the low resolution BIAcore not stated) (human, UniProt Q96F46 33-320, limits assumed); assay: low resolution BIAcore, subcloned hybridoma
[21] = target: T2, huIL-17RA-FLAG-polyHis; assay: binning; IL-17RA held by bead mAb B
[22] = target: T3, human IL-17RA, full-length, on cells; assay: cell-based or functional assay; remark: listed apart in the source
[23] = target: T4, chimera D; assay: Bio-Plex titration on His-captured chimera;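 further: binding of anti-IL-17RA antibodies (4-fold titration across about 5 logs, 1 h) to His-captured IL-17RA chimeras on multiplexed beads, MFI read as percent of maximal wild-type human IL-17RA signal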
T4 construct: human IL-17RA extracellular domain with mouse Domain D; column head 176-197; also called Construct D
T4 IL-17RA extracellular domain with FLAG-polyHis tag: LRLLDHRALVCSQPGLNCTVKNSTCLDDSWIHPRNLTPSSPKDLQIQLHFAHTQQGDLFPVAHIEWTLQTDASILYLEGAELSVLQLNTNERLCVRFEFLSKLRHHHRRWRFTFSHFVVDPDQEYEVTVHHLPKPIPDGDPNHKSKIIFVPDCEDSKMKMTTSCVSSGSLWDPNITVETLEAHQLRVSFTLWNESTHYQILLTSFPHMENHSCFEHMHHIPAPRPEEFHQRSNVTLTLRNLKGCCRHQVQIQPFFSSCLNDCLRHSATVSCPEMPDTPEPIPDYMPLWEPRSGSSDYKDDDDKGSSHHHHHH

[24] = target: T5, chimera J; assay: Bio-Plex titration on His-captured chimera;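 further: binding of anti-IL-17RA antibodies (4-fold titration across about 5 logs, 1 h) to His-captured IL-17RA chimeras on multiplexed beads, MFI read as percent of maximal wild-type human IL-17RA signal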
T5 construct: human IL-17RA extracellular domain with mouse Domains D and E; column head D+E; also called Construct J

MFI [1]: 6
normalized MFI [2]: 60
normalized MFI [3]: 1410
normalized MFI [4]: 3280
normalized MFI [5]: 11
normalized MFI [6]: 1900
normalized MFI [7]: 888
normalized MFI [8]: 40
normalized MFI [9]: 1940
normalized MFI [10]: 20
normalized MFI [11]: 73
normalized MFI [12]: -5
normalized MFI [13]: 765
normalized MFI [14]: 3040
normalized MFI [15]: 49
normalized MFI [16]: 18
normalized MFI [17]: 26
normalized MFI [18]: 31
IL-17A/HFF bioassay IC50, subclone 17 [19]: 3.5 nM
IL-17A/HFF bioassay IC50, subclone 18 [19]: 3.7 nM
IL-17A/HFF bioassay IC50, subclone 20 [19]: 5.5 nM
Kd [20]: 8.2 nM
normalized MFI [21]: 455
% inhibition of IL-6 Production, IL-17A/HFF bioassay, non-clonal supernatant 1:4 [22]: 75%
% inhibition of IL-6 Production, IL-17A/HFF bioassay, non-clonal supernatant 1:32 [22]: 82%
% inhibition of IL-6 Production, IL-17A/HFF bioassay, non-clonal supernatant 1:128 [22]: 61%
B1: AMH12/AML12 (antibody, IgG2, V domains shown)
VH: QVQLVQSGAEVKKPGASVKVSCKASGYTLTSYGISWVRQAPGQGLEWMGWISTYKGNTNYAQKLQGRVTMTTDTSTSTAYMELRSLRSDDTAVYYCARKQLVFDYWGQGTLVTVSS
VL: EIVMTQSPATLSVSPGERATLSCRASQSISSSLAWYQQKPGQAPRLLIYGASTRATGIPARFSGSGSGTEFTLTISSLQSENFAVYYCQQYDNWPLTFGGGTKVEIK
notes: human mAb from IgG2 XenoMouse mice; also called AM-12; antibody M

EC50 [23]: 0.145 nM
EC50 [24]: 0.234 nM
B2: AMH26/AML26 (antibody, IgG2, V domains shown)
VH: QVQLVESGGGLVKPGGSLRLSCAASGFTFSDYYMSWIRQAPGKGLEWVSYISSSGSTIYYADSVKGRFTISRDNAKNSLYLQMNSLRAEDTAVYYCARDRTYYFGSGSYEGMDVWGQGTTVTVSS
VL: B1 VL with V3L, I29V, S30Y, S32N, Y49S, N82D, D92Y, L96W, G100Q
notes: human mAb from IgG2 XenoMouse mice; also called AM-26; antibody P

MFI [1]: 8
normalized MFI [2]: 98
normalized MFI [3]: 1920
normalized MFI [4]: 4260
normalized MFI [5]: 43
normalized MFI [6]: 2470
normalized MFI [7]: 1200
normalized MFI [8]: 76
normalized MFI [9]: 2470
normalized MFI [10]: 40
normalized MFI [11]: 68
normalized MFI [12]: -44
normalized MFI [13]: 999
normalized MFI [14]: 3980
normalized MFI [15]: 55
normalized MFI [16]: -1
normalized MFI [17]: 18
normalized MFI [18]: 8
IL-17A/HFF bioassay IC50, subclone 21 [19]: 2.5 nM
IL-17A/HFF bioassay IC50, subclone 22 [19]: 5.3 nM
IL-17A/HFF bioassay IC50, subclone 23 [19]: 0.57 nM
Kd [20]: 8.2 nM
normalized MFI [21]: 597
% inhibition of IL-6 Production, IL-17A/HFF bioassay, non-clonal supernatant 1:4 [22]: 90%
% inhibition of IL-6 Production, IL-17A/HFF bioassay, non-clonal supernatant 1:32 [22]: 81%
% inhibition of IL-6 Production, IL-17A/HFF bioassay, non-clonal supernatant 1:128 [22]: 73%
B3: AMH17/AML17 (antibody, V domains shown)
VH: B1 VH with S17A, S25T, T53A, K55S, N59K
VL: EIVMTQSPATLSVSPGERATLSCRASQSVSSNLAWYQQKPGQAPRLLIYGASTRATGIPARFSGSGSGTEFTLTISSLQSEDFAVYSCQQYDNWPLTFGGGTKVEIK
notes: human mAb from IgG2 XenoMouse mice; also called AM-17; antibody N
